The target in test [1] is 6×His tagged human CD39 (human). Briefly: Biacore, antibody captured, 6×His human CD39 as analyte, 1:1 model. In general terms: SPR reads the build-up and loss of mass on a sensor chip optically.
The target in test [2] is human CD39 protein (Octet assays) (human). Briefly: Octet, antibody on sensor, CD39 gradient. (BLI is a label-free optical method that tracks binding on a fibre tip over time.)
Chain of human CD39 protein (Octet assays) (human) (P49961 38-478): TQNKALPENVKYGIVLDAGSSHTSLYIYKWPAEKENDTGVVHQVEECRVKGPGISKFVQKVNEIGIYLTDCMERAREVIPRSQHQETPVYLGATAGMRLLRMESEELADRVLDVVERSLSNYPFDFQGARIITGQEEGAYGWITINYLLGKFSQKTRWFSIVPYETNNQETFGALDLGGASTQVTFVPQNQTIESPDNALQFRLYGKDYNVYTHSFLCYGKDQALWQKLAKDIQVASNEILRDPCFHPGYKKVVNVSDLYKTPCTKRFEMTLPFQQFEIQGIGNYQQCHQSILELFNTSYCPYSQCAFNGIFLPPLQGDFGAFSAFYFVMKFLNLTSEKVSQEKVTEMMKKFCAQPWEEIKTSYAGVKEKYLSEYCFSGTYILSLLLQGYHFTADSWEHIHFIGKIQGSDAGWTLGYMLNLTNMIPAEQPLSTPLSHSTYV

Chain of 6×His tagged human CD39 (human) (P49961 38-478): as above

B1: hu23.H5L5 (antibody, from a related filing, V domains shown)
VH: QVQLVQSGAEVKKPGASVKVSCKASGYNLKDTFLHWVRQAPGQGLEWMGRIDPANGNIKYDPKFQGRVTITADTSANTAYMELISLRSEDTAVYYCANSPYYYGSGYRIFDVWGQGTTVTVSS
VL: QIVLTQSPATLSLSPGERATLSCSAFSSVNYMHWYQQKPGQAPRLLIYTTSNLASGIPTRFSGSGSGTSYTLTISSLEPEDFAVYYCQQRSTYPFTFGQGTKLEIK
By Kd is commonly meant the free concentration of one partner at which half of the binding sites on the other are occupied at equilibrium, for simple one-to-one binding. A lower Kd goes with a tighter complex. In general, koff refers to a measure of how fast the partners let go of each other. A higher koff goes with a short-lived complex. As usually defined, the kon is the rate constant with which the complex forms. Low readings indicate slow association, high ones fast association. In the case of B1, in test [1], the Kd amounted to 19.5 nM, the koff came out at 0.0016 s⁻¹ and the kon was 82200 M⁻¹ s⁻¹. In test [2], this molecule had a Kd of 0.687 nM, a koff of 9.36e-05 s⁻¹ and a kon of 136000 M⁻¹ s⁻¹.

These data come from patent US20230416394A1.
